In the DeepSol protein solubility set:

Test: soluble on expression in E. coli; label from the status in PepcDB or PDB records

Sequence | soluble on expression in E. coli
MGSDKIHHHHHHMIHVGTCGFCEKQDKYFQDFSTVEIQQTFYKILQESTLKKWREKAPEGFVFSIKAFQGVTHPPNSPTWRRSNVKPSKNVGLLRPTNEVIHYWKITLNEAKILNARFILIQLPRSFKESEESFSNAERFFSIIDRGEFEIAVELRGWSERGIKKFVREFDVIDVVDPMVRVPLHGGGVNYYRLHGKYENGRIIYSYKYSDEELLKIRERVLSFHVEESYVYFNNSNMCEDAQRFKQLIMKF | not soluble
AHHHHHHGSILEKAREILEEHQLCNHCLGRLFGKLGKGTNEERGRAIRLLLSMETGKEYKEPEKCELCGGVFNNLDKFAELCIKAAEGIEFETFWVGSRFPEEIEKKEEEIWRKFRVVSGEKITKEFNRELGKVIAVRYGKTPVKERPDVVFIVEPFSEKVELQVNPIYVAGRYRKLIRGIPQTPAPGFKESIATIICRAFKKHFHGKCIFKGAGREDVDVRMLGNGRPFVVEIKRPRKRKVNLKDIEEEINQSGKVEVLNLRFITPEEAERILTTRHRKVYEAIVYVKDGITKEEVEKVVKSLKNAEIKQRTPRRVLNSRADLVRVRKVYDVKGELIDDKHFKLRLVTDGGLYIKELISGDRGRTTPSVSEILGKEAWCEILDVLEVLDDVEGDN | soluble
MINMEKCLLEKYNSLLEFFKNKKVIVAYSGGVDSTLISKIASDATKTLAVTVDNGFFSENVIKKAEDCAKKYNIPQKTEKIDYLNEITSKNLENRCYNCKKRIAEELKKIKNELNYDIIVDGTIYDDIFEDRPGIKAFHEENIISPLSDLKFNKNDVFEISKYLKIDIPKKDTCMATRILSAPISKENMAKSNLAEEFIKSNFHIESYLRVRYIENIAIIELTKNESEKIFDNDSIERINTELKKIGFEKVVIDLNFK | not soluble
MKNRYAKVSNMAKNASSPSRRFMKLAGMTASIATKTVSNSIRNLTADDEQKLASKTKLFQDIGIQIADTLGEMKGAVMKVGQIASQYKDIFPPEVAKAIAKLQRQAPAVPFSAIQQQVEKELGKPLLQAFQSFDQQPFAAASIGQVHRAVLPDGQEVVVKVQYPGVDEACESDLKQVRLALRLMGVIKIDKKLQDQLFTEIQDSLSDELNYEIEAQNLEVFKTFHQQLDNKIIIPTVYKNYSSRRILTLSLERGDSIETASTWPLETRNQIGRRLIRALGQEIFYLKRFHCDPHPGNFAFREDGTVIIYDFGGVKTLSSDIVSHFKHLVQAARQQDITAIENHLDALHSLSDKGLFPEELYLQWLEVLLRPLTTHYDFAENSAHHDGVTLVKKSLKYWDVFKPSPDTLMVNRTISGHYWNLIHLKVHDDLSDLFEELVPTTIN | not soluble
MGLFQSDKAAEEIDPPQDVTFVNDEAGANSNTTAAKKTESEKSDTAKADQASSTVMRELYLIDKNGYVVAQTLPLPKSESTAKQALEYLVQGGPVSEILPNGFRAVLPADTTVNVDIKKDGTAIADFSNEFKNYKKEDEQKIVQSVTWTLTQFSSIDKVKLRINGHELKEMPVGGTPISDDLSRKDGINLETAGVNDLTATHPLTVYYLAENEDSEYYVPVTKRIDNSEKDDITAAINELAKGPSKVSGLLTDFSEDVKLVSKPKIKDGRVTLDFNQSIFGSADEKTKMISSEVLNSIVLTLTEQPDVKSVSVKVNGKSELVNEKGEKLTEPVSRPSQVNTGSFLEHHHHHH | soluble
GMKRAVVVFSGGQDSTTCLIQALQDYDDVHCITFDYGQRHRAEIEVAQELSQKLGAAAHKVLDVGLLNELATSSLTRDSIPVPDYDANAQGIPNTFVPGRNILFLTLASIYAYQVGAEAVITGVCETDFSGYPDCRDEFVKALNQAIVLGIARDIRFETPLMWLNKAETWALADYYQQLDTVRYHTLTCYNGIKGDGCGQCAACHLRANGLAQYQKDAATVMASLKQKVGLR | soluble
MGSDKIHHHHHHMTMPYVKNTKEILEKASKERYAIGAFNFNNMEFLQAILEAAEEEKAPVIVATSEGAIKYIGKGDIETGAKLAVEMVRTYAEKLSVPVALHLDHGRDFKVIMAAIKAGYSSVMIDASHLPFEENLRETKRIVEIAHAVGISVEAELGKLKGIEDNVVEKESVLVDPEEAKVFVKETEVDFLAPAIGTSHGAFKFKGEAQLDFERLKKVKEYTQIPLVLHGASMVPQDIVKLANEYGAELSGAKGVPEDMLKKAIELGINKINTDTDLRITFVAYLRKVLSEDKSQIDPRKIFKPVFEQVKEIVKERIRIFGSSGKA | not soluble
MPTIQSVRRTQSGRPGKRAINLSLSADVLDAARQLDINISQVCDTYLREVVRHEQERRWREEHADFITAYNATIEAENLPLDEWRSF | not soluble
MEPPKLLGVVLTTALLFHIALTAKQAVVSRKSKLCGNVECEEVLFKARVKRVMGINNDPSFLNLAENAIISVVAVKFSDRPDIMEGKLNGEGSNGFFYAGAIDIMPFAEFLRTAITDKKEMLMISQNPADIGDKRIVGFLHSETDLVRDFNAKNAQAAAENGLPAPEPIPIPEPAHTGHGHSHGGHGHSHGGHGHSHGHPAPTPAPTPAPKPIEEAPKPAEEPVKPADLEMDAEIERLIKEEEERMKNVAEQPPLVLQSLPETPEAQKLPEEPLEPVTPEPIPEAPVPIAQYIQEPTTTPAPLEAPAPVENAPNLPTPTFSVDDLMAQAARDALNSNSIVPDAPKVEEPEPAPTPAPAPAEDPVVTPAPEELTGVCYKDDCQGLQTPPPPAPPPPAPAVPEEAQAPTPAPEEAPEAQIPAETAQIPPENAVPEAPEEPAPTTTPPPISAGEAEFLKWEEARQKREAVAAAPYEDAQAHQFVASPPPHVSSGLIELIRSSLGLGNITDSSVLLVVNLTFVAASFLVYIIIRSLSSGGESDILDRQAHFDLMNKHKQLQLQLNAKITEIQNLQANGAAAQRPEQPNYEPELLALRQQLAHLQSELQTAHAQRQEFEIHYHQIRELAEQKDHQIAQLTEQANDYQERLEKSQSELQELARHVDSARAELMDSQTSDYGRQQELMEKQAELEQIYVKIDNLTAENRDLTDKIAQLQVSDSLELEELEELRNKNLELQEQVKQLKEELEKEKSVAGSGNSGGWSDIDDNEVVEAVQPIETTPISSENSENLKKFEAEIAELKASLEKTEKELTKYRNLYNEKLTAISDKENRSQIEMEHKLKNAESDLQEAKRRAEEIGAEKKELSDRLNEMLKNLNQSMQKSAENDKMLTQLREEAFAKEKQLLEHDSVLRKKDDKIRELDAEFKRVKMEYVKLETKSFHDVRKLNMDVEELKTQLSMAGGVTSSRSIPDRLVSPLQEPIWDEPEPALQRVVLPLDGYSSMRRRSTRRSQLPFGAESPSDQEKKQAAPSHRRRSRSHGRQPPSFHDPYSMNPYLPGSSDSSFMSTSQPQFLPLNRQHSRSGHLMSNSANGPYSSGGSNGGRSPPPEMPLLSAIPPPGARKPLGKRPDSAHHLGK | not soluble
MRIGIVGAGLGGLLAGALLSKNHEVVVFEKLPFLGGRFTNLKYEGFQLTTGALHMIPHGNDGYLAQALRKAGANVKIINSKPDGTFLINGKEYLYKELFSLLGFKEKAKAFKLATKLKLGKVDKNISFGEFLEEIDLALKVGNAFTGWALSLTAYETPMSEIIEIAKNYHKFGGPGIPIGGCKAVTDELSRIIKKNNGKIIKEYEVKRIEIDEKAYIDDYEFDVVISNISPIETQKICNIKFLKSKPKPSKGIKISIATKEGIIKHGGVLFTPECERINGLNQVTNVDKSLAPEGWHLVMTHQTQLTNNVKKEIDLGLEDIENLFKGKDYKILHIQSYRDDWPVNHASNGTDIDNIVNDRFYLVGDGAKGRGGIEVEGIAMGVLKVVNYINSLLEHHHHHH | soluble
MGNNQPGGMYKRDRPYDSEKSGSHSRSRGGIPSSSPSNEDECPVQMKIAKGDDKSKFPVVFKWNINNATPRQVYICGSWDGWNTKIPLVKSTSDFSTIVDLEPGKHEYKFMVDSKWVVDDNQQKTGNNLGGENNVVMIDEADFEVFDALDKDLASSNAGEALRNSHPTKESHDTPNDRELEKLHQFGQETPTRVDFNKAAAPPVLPPHLLQVILNKDTPVQCDPNVLPEPDHVMLNHLYALSIKDGVMVLSATHRYRKKFVTTLLYKPI | soluble
MGSDKIHHHHHHMNDPTFYRDGQGQPIQPDSAREAVAWLTQLMSDSVTEQDRREWQRWREASPDNEQAWQHIESVCANLGQLNARAAHQSLSTLNGMQRRSVLKALAILCLTGGAGMAGSRTDVWQSFTADYQTQVGEQRHAVLEDGTTLLLNTQTALNVAYGDDLRQLTLIRGEVMIETSQVEKAALYPRPFIVTTAQGKVQALGTRFSLRVQDEHTQVAVYDGAVRLHPQRNGQDVQVVKSGQTATFTTQRCGQIETEKAEPAWVKGQLLADNQRLVDFVDELSRYRSGVIRCQPEVESLRFSGVFPLSDTDNILAALAEALPVQVRYFSRYWVQIAAR | not soluble
MILVFLDNMASIKDLNLIDEINDSSNLKLINDRLKLLFWTKNPEITDEENKKKYLDFLNEYWDTLRAYGAGDLELFPDKINYLTLILAANSKNHNIYIKKLAEKYAEKIPIEDGDSKINIWDFIDVAANSRNNDLHLERMILEGDTVLLNQKNQSIYNFEKIRLKLKNYVEKVRNAEMPKEIKDLLVKKSEEAFEGINIGYNIESGIKVSTKEYSGEIPEDWHPPCMREILNDILSGGSPSHYARRSFVVYRFVSQFDPNLRPIEEGIITNRSAQDIATEEQIERFLDEIINIFKSVGDFDVEKTKYYISHNIGYKVANHITHCEYCKNWRDDGGKGLGYYCRPDSTCSRKDIIHPLDYLCHNINRHVKKSELEHHHHHH | not soluble
MHHHHHHSSGVDLGTENLYFQSMNLPEHWTDMNHQLFCMVQLEPGQSEYNTIKDKFTRTCSSYAIEKIERIQNAFLWQSYQVKKRQMDIKNDHKNNERLLFHGTDADSVPYVNQHGFNRSCAGKNAVSYGKGTYFAVDASYSAKDTYSKPDSNGRKHMYVVRVLTGVFTKGRAGLVTPPPKNPHNPTDLFDSVTNNTRSPKLFVVFFDNQAYPEYLITFTA | soluble
MEAQNRIEDHGIIGDMRSAALIADTGSIDFCCWPDFDSPSIFTALLDTPDAGIFQLAPDLPDARRLQIYLPDTNVLQTRWIAEQAVVEVTDLMPIGEDQDDLPRIVRRVQVRFGEATIRMRCRVRMDYSRALEHHHHHH | not soluble
MIITIPIKNQKDIGTPSDSVVVLGYFDGIHKGHQELFRVANKAARKDLLPIVVMTFNESPKIALEPYHPDLFLHILNPAERERKLKREGVEELYLLDFSSQFASLTAQEFFATYIKAMNAKIIVAGFDYTFGSDKKTAEDLKNYFDGEVIIVPPVEDEKGKISSTRIRQAILDGNVKEAGKLLGAPLPSRGMVVHGNARGRTIGYPTANLVLLDRTYMPADGVYVVDVEIQRQKYRAMASVGKNVTFDGEEARFEVNIFDFNQDIYGETVMVYWLDRIRDMTKFDSVDQLVDQLKADEEVTRNWS | soluble
MEYNPFHNGHLYHLTSARELVKPDYTIAVMSGNFCQRGEPAVIDKFARAEIALRMGVDVVLELPVVFATQDAGGFAFGAVCVLDATGVVTDVVFGSESNDIEFLQRVARILYEQPDEYQKFLHEELKKGYSFPNARKYALMRYFSMKGWNEEEVLKLEKSNDILGVEYIHSALKIGSNIRFHTIKRVGAEEKDTSFRGRFSSATAIRNLMREKRWEEVRDSLPEDSFEILMREINEGRGPVFLENMGDFLLSFFRLKNMDFFEKIHGFSEGLEKRFHVCARQTGSYRDFLECVKAKRFTFSRIRRLALFSVFEVNKEFVEKSNTKGPQYIRILGFTEKGREILSLMRKKAKLPIVTNMSLYRKVLEKTDLPVDKQLFLEQIDLDVKATNFYSMFFPSVEQRCGERDFSIHPIFLRTEM | not soluble
